In patent US6979673B1, “Method and compositions for modulating somatolactogenic functions” (Trustees of the University of Pennsylvania, priority 1999, dated 2005):

System: Nb2 cells
Assay: PRL-driven proliferation of Nb2 cells (3H-thymidine)
Type: cell-based, rat
Description: The effect of exogenous CypB on PRL-driven proliferation was examined with the rat Nb2 T-cell and the human T47D breast cancer line. […] This dose-dependent biphasic effect was most prominent at physiologic concentrations ([…]) of CypB and PRL (50 pM) found in human serum. […] To determine the effect of CypB on cellular growth driven by the larger family of cytokines, to which PRL belongs, proliferation driven by interleukin-2 (IL-2), IL-3 and GH was examined.
Nb2-cells (5×10^4; PRL-dependent, rat T-lymphoma) were plated in each well of 96 well plates in a defined DMEM-serum free medium (0.1 mM 2-mercaptoethanol, 1% penicillin/streptomycin, and 1% ITS+ (Calbiochem)). Cells were rested for 24 hours at 37° C. in this defined medium in the absence of PRL before the addition of 5–500 pM PRL (either as human pituitary isolated PRL, National Hormone and Pituitary Program, NIDDK; recombinant human PRL from E. coli, Genzyme; or recombinant human PRL from Drosophila S2 cells) alone or premixed with 1–2000 fold excess of purified CypB. Parallel studies were performed using human pituitary-derived GH (National Hormone and Pituitary Program, NIDDK). Cultures were incubated for 48 hours at 37° C. and proliferation was evaluated by the addition of 0.5 μCi of ^3H-thymidine for four hours followed by harvesting and scintillography. […]

B1: Myc-tagged PRL: recombinant myc-tagged human PRL expressed and secreted by Drosophila S2 cells (protein)
chain: LPICPGGAARCQVTLRDLFDRAVVLSHYIHNLSSEMFSEFDKRYTHGRGFITKAINSCHTSSLATPEDKEQAQQMNQKDFLSLIVSILRSWNEPLYHLVTEVRGMQEAPEAILSKAVEIEEQTKRLLEGMELIVSQVHPETKENEIYPVWSGLPSLQMADEESRLSAYYNLLHCLRRDSHKIDNYLKLLKCRIIHNNNC
modifications: left off: small tags and cut ends
notes: recombinant myc-tagged human PRL expressed and secreted by Drosophila S2 cells
Protein expressed in Drosophila S2 cells
  bioactivity in Nb2 bioassays: functionally bioactive

B2: PRL: somatolactogenic hormone prolactin; human pituitary isolated or recombinant human PRL (protein)
chain: LPICPGGAARCQVTLRDLFDRAVVLSHYIHNLSSEMFSEFDKRYTHGRGFITKAINSCHTSSLATPEDKEQAQQMNQKDFLSLIVSILRSWNEPLYHLVTEVRGMQEAPEAILSKAVEIEEQTKRLLEGMELIVSQVHPETKENEIYPVWSGLPSLQMADEESRLSAYYNLLHCLRRDSHKIDNYLKLLKCRIIHNNNC
modifications: left off: small tags and cut ends
PRL alone, sigmoid shaped growth curves
  PRL concentration at which Nb2 growth curves plateau: approximately 2 ng PRL/ml
